Results as given in paper PMC2889002.

Target: GST fusion of the full-length cytoplasmic loop of connexin43 (GST-CLFL) (UniProt P23242)
Assay: pull-down

Chain of UniProt P23242 (P23242 98-155): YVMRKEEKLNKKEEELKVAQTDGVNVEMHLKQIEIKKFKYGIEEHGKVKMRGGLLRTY

**Q.** “β-tubulin (Tubulin β5/2c) of mouse brain (from UniProt P99024 1-444) (natural protein)” was tested. Which affinity relative to that of Cx43-CT for β-tubulin did it give?
**A.** Its affinity relative to that of Cx43-CT for β-tubulin is 0.2 fold.
